Values joined by “and” are separate entries in the source; they are usually repeats but may differ in a detail not shown here. Equal entries are not always repeated.
Molecular target: myc-tagged TRIM25 WT (tripartite motif-containing protein 25), Q14258
Experiment: co-IP; myc IP (anti-myc beads) of myc-TRIM25 WT from lysates of ZAP KO 293T cells co-transfected with FLAG-ZAPS or FLAG-ZAPL WT or mutants; FLAG-ZAP detected by immunoblot; FLAG IP buffer (100 mM Tris-HCl 8.0, 150 mM NaCl, 5 mM EDTA, 1 mM DTT, 5% glycerol, 0.1% NP-40), 4°C, 45 min; FLAG IP band divided by myc IP band (ImageJ)
Settings: remark: other sources report otherwise

Sequence of myc-tagged TRIM25 WT (tripartite motif-containing protein 25), Q14258 (Q14258 whole entry): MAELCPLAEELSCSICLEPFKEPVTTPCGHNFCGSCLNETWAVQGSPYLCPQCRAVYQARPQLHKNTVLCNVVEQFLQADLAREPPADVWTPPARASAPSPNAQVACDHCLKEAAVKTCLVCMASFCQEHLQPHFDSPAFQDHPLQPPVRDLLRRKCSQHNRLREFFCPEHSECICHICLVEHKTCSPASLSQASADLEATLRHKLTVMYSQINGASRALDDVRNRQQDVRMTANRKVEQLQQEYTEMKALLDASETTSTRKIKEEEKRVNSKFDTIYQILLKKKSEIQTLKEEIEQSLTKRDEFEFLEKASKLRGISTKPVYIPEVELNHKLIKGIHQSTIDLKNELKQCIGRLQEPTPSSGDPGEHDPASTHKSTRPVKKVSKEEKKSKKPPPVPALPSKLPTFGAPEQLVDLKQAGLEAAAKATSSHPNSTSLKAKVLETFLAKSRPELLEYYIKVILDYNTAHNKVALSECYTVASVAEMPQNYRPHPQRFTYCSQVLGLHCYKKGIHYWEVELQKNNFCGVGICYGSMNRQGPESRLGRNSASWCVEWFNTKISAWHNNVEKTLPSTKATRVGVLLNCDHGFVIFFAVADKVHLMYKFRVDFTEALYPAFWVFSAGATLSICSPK

B1: FLAG-tagged ZAPS WT (zinc finger antiviral protein, short isoform), Q7Z2W4-2 1-699 (natural protein)
chain: MADPEVCCFITKILCAHGGRMALDALLQEIALSEPQLCEVLQVAGPDRFVVLETGGEAGITRSVVATTRARVCRRKYCQRPCDNLHLCKLNLLGRCNYSQSERNLCKYSHEVLSEENFKVLKNHELSGLNKEELAVLLLQSDPFFMPEICKSYKGEGRQQICNQQPPCSRLHICDHFTRGNCRFPNCLRSHNLMDRKVLAIMREHGLNPDVVQNIQDICNSKHMQKNPPGPRAPSSHRRNMAYRARSKSRDRFFQGSQEFLASASASAERSCTPSPDQISHRASLEDAPVDDLTRKFTYLGSQDRARPPSGSSKATDLGGTSQAGTSQRFLENGSQEDLLHGNPGSTYLASNSTSAPNWKSLTSWTNDQGARRKTVFSPTLPAARSSLGSLQTPEAVTTRKGTGLLSSDYRIINGKSGTQDIQPGPLFNNNADGVATDITSTRSLNYKSTSSGHREISSPRIQDAGPASRDVQATGRIADDADPRVALVNDSLSDVTSTTSSRVDDHDSEEICLDHLCKGCPLNGSCSKVHFHLPYRWQMLIGKTWTDFEHMETIEKGYCNPGIHLCSVGSYTINFRVMSCDSFPIRRLSTPSSVTKPANSVFTTKWIWYWKNESGTWIQYGEEKDKRKNSNVDSSYLESLYQSCPRGVVPFQAGSRNYELSFQGMIQTNIASKTQKDVIRRPTFVPQWYVQQMKRGPE
**Q.** B1 was tested. Which ZAP-TRIM25 interaction (co-IP, FLAG-ZAP band over myc-TRIM25 band, ImageJ) did it give?
**A.** 0.131 and 0.304

— PMC9253567
